Holding throughout (type): functional, cell-based
Substrate in data set [1]: C[C@]12CC[C@@H]3c4ccc(OS(=O)(=O)O)cc4CC[C@H]3[C@@H]1CCC2=O
Description: (§1) TP_TRANSPORTER: uptake in Ntcp-expressing CHO cells.

Substrate in data set [2]: C[C@H](CCC(=O)NCCS(=O)(=O)O)[C@H]1CC[C@H]2[C@@H]3[C@H](O)C[C@@H]4C[C@H](O)CC[C@]4(C)[C@H]3CC[C@]12C
Described as §1.

Substrate in data set [3]: C[C@H](CCC(=O)NCC(=O)O)[C@H]1CC[C@H]2[C@@H]3[C@H](O)C[C@@H]4C[C@H](O)CC[C@]4(C)[C@H]3C[C@H](O)[C@]12C
The description is as §1.

B1: Hepatic sodium/bile acid cotransporter (Rattus norvegicus) (protein)
chain: MEVHNVSAPFNFSLPPGFGHRATDKALSIILVLMLLLIMLSLGCTMEFSKIKAHLWKPKGVIVALVAQFGIMPLAAFLLGKIFHLSNIEALAILICGCSPGGNLSNLFTLAMKGDMNLSIVMTTCSSFSALGMMPLLLYVYSKGIYDGDLKDKVPYKGIMISLVIVLIPCTIGIVLKSKRPHYVPYILKGGMIITFLLSVAVTALSVINVGNSIMFVMTPHLLATSSLMPFSGFLMGYILSALFQLNPSCRRTISMETGFQNIQLCSTILNVTFPPEVIGPLFFFPLLYMIFQLAEGLLIIIIFRCYEKIKPPKDQTKITYKAAATEDATPAALEKGTHNGNIPPLQPGPSPNGLNSGQMAN
As usually defined, the Km is the concentration of substrate that gives half-maximal velocity. As for B1, the Km was 27 µM in data set [1], 5 µM in data set [2] and 27 µM in data set [3].

Values taken from ChEMBL document CHEMBL2074562, “Substrate specificity of the rat liver Na(+)-bile salt cotransporter in Xenopus laevis oocytes and in CHO cells” (Am J Physiol, 1998).
